Consider six substances from patent US5422104.

Where only a bound is given, the exact number is not on record here.

The target of assay [1] is recombinant human p75-TNF-R-human IgGγ3 fusion protein (human) (UniProt P20333). As to the kind of experiment: calculated from FIG. 7: competition with 125I-TNFα on plates coated with receptor-IgGγ3 fusions; reference: the same mutein on p55-TNF-R-IgGγ3.
Assay [2] addresses human p55-Tumor-Necrosis-Factor-Receptor on Hep-2 cells (human) (UniProt P19438).
UniProt P19438, sequence (P19438 30-455): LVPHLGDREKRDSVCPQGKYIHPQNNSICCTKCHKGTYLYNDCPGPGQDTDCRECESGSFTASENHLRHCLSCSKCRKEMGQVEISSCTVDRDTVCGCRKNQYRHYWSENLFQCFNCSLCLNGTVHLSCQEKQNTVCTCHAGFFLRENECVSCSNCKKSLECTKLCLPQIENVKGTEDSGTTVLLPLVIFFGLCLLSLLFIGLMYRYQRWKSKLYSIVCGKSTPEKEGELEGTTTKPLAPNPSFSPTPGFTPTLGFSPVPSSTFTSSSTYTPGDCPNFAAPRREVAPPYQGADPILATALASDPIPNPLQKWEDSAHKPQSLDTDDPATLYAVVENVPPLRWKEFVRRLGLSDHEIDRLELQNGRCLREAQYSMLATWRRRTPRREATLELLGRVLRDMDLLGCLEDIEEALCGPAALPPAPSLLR
Assay [3] addresses human p75-Tumor-Necrosis-Factor-Receptor on U937 cells (human) (UniProt P20333). As to the kind of experiment: competition assay on U937 cells.
For assay [4] the target is unchanged. Nature of the assay: competition analysis on U937 cells.
In assay [5] the target is native human p75-TNF-R purified from HL60 cells (human) (UniProt P20333). Nature of the assay: competition with 125I-TNFα for p75-TNF-R.
The target in assay [6] is human p75-Tumor-Necrosis-Factor-Receptor on U937 cells (human) (UniProt P20333). As to the kind of experiment: competition analysis, U937 cells against Hep-2 cells.
Assay [7] has the same target. As to the kind of experiment: 125I-TNF-α competition, U937 cells, exp 1, mutant 1 × 10^-6 mol.
The target is the same in assay [8]. Nature of the assay: 125I-TNF-α competition, U937 cells, exp 1, mutant 1 × 10^-9 mol.
Assay [9] shares this target. As to the kind of experiment: 125I-TNF-α competition, U937 cells, exp 1, mutant 2 × 10^-6 mol.
The target is the same in assay [10]. Nature of the assay: 125I-TNF-α competition, U937 cells, exp 1, mutant 5 × 10^-7 mol.
Assay [11] has the same target. As to the kind of experiment: 125I-TNF-α competition, U937 cells, exp 1, mutant […] 10^-7 mol.
The target is the same in assay [12]. Nature of the assay: 125I-TNF-α competition, U937 cells, exp 1, mutant […] 10^-8 mol.
Assay [13] has the same target. As to the kind of experiment: 125I-TNF-α competition, U937 cells, exp 2, mutant 1 × 10^-6 mol.
For assay [14] the target is unchanged. Nature of the assay: 125I-TNF-α competition, U937 cells, exp 2, mutant 2 × 10^-6 mol.
For assay [15] the target is unchanged. Nature of the assay: 125I-TNF-α competition, U937 cells, exp 2, mutant 3 × 10^-8 mol.
Assay [16] shares this target. Nature of the assay: 125I-TNF-α competition, U937 cells, exp 2, mutant 4 × 10^-9 mol.
Assay [17] shares this target. As to the kind of experiment: 125I-TNF-α competition, U937 cells, exp 2, mutant 5 × 10^-7 mol.
Assay [18] shares this target. Nature of the assay: 125I-TNF-α competition, U937 cells, exp 2, mutant 6 × 10^-8 mol.
Assay [19] has the same target. Nature of the assay: 125I-TNF-α competition, U937 cells, exp 2, mutant 8 × 10^-9 mol.
Assay [20] shares this target. Nature of the assay: 125I-TNF-α competition, U937 cells, exp 2, mutant […] 10^-7 mol.
The target is the same in assay [21]. As to the kind of experiment: 125I-TNF-α competition, U937 cells, exp 1, mutant 2 × 10^-9 mol.
Assay [22] shares this target. Nature of the assay: 125I-TNF-α competition, U937 cells, exp 1, mutant 4 × 10^-9 mol.
The target is the same in assay [23]. Nature of the assay: 125I-TNF-α competition, U937 cells, exp 1, mutant 8 × 10^-9 mol.
For assay [24] the target is unchanged. As to the kind of experiment: 125I-TNF-α competition, U937 cells, exp 1, mutant 3.2 × 10^-8 mol.
The target is the same in assay [25]. As to the kind of experiment: 125I-TNF-α competition, U937 cells, exp 1, mutant 6.4 × 10^-8 mol.
Assay [26] shares this target. As to the kind of experiment: 125I-TNF-α competition, U937 cells, exp 2, mutant 1.2 × 10^-7 mol.
Assay [27] shares this target. Nature of the assay: 125I-TNF-α competition, U937 cells, exp 2, mutant 1.5 × 10^-8 mol.
Assay [28] has the same target. As to the kind of experiment: 125I-TNF-α competition, U937 cells, exp 1, mutant 1.25 × 10^-7 mol.
In assay [29] the target is native human p75-TNF-R purified from HL60 cells (human) (UniProt P20333). Nature of the assay: competition with 125I-TNFα for p75-TNF-R, calculated from FIG. 1 (and FIG. 7).
Assay [30] shares this target. Nature of the assay: from the IC50 values of Table F, competition with 125I-TNFα; reference: the same mutein on p55-TNF-R.
For assay [31], the target named is human p75-Tumor-Necrosis-Factor-Receptor on U937 cells (human) (UniProt P20333). Nature of the assay: 125I-TNF-α competition, U937 cells, exp 1, mutant 3 × 10^-8 mol.
For assay [32] the target is unchanged. As to the kind of experiment: 125I-TNF-α competition, U937 cells, exp 1, mutant 6 × 10^-8 mol.
Assay [33] shares this target. Nature of the assay: 125I-TNF-α competition, U937 cells, exp 1, mutant 1.5 × 10^-8 mol.
For assay [34] the target is unchanged. As to the kind of experiment: 125I-TNF-α competition, U937 cells, exp 2, mutant 1.10^-6 as printed.
Assay [35] has the same target. Nature of the assay: 125I-TNF-α competition, U937 cells, exp 2, mutant 4 × 10^9 as printed.
Assay [36] has the same target. As to the kind of experiment: 125I-TNF-α (batch 2) competition, U937 cells, exp 3, mutant 1 × 10^-6 mol.
The target is the same in assay [37]. Nature of the assay: 125I-TNF-α (batch 2) competition, U937 cells, exp 3, mutant 2 × 10^-6 mol.
The target is the same in assay [38]. As to the kind of experiment: 125I-TNF-α (batch 2) competition, U937 cells, exp 3, mutant 3 × 10^-8 mol.
Assay [39] has the same target. As to the kind of experiment: 125I-TNF-α (batch 2) competition, U937 cells, exp 3, mutant 4 × 10^-9 mol.
The target is the same in assay [40]. As to the kind of experiment: 125I-TNF-α (batch 2) competition, U937 cells, exp 3, mutant 5 × 10^-7 mol.
The target is the same in assay [41]. Nature of the assay: 125I-TNF-α (batch 2) competition, U937 cells, exp 3, mutant 6 × 10^-8 mol.
Assay [42] has the same target. As to the kind of experiment: 125I-TNF-α (batch 2) competition, U937 cells, exp 3, mutant 8 × 10^-9 mol.
Assay [43] has the same target. As to the kind of experiment: 125I-TNF-α (batch 2) competition, U937 cells, exp 3, mutant […] 10^-7 mol.
The target is the same in assay [44]. Nature of the assay: 125I-TNF-α (batch 2) competition, U937 cells, exp 3, mutant 1.5 × 10^-8 mol.
For assay [45] the target is unchanged. Nature of the assay: 125I-TNF-α (batch 2) competition, U937 cells, exp 3, mutant 1.25 × 10^-7 mol.

UniProt P20333, sequence (P20333 other isoform, or with tags, fused parts or gaps): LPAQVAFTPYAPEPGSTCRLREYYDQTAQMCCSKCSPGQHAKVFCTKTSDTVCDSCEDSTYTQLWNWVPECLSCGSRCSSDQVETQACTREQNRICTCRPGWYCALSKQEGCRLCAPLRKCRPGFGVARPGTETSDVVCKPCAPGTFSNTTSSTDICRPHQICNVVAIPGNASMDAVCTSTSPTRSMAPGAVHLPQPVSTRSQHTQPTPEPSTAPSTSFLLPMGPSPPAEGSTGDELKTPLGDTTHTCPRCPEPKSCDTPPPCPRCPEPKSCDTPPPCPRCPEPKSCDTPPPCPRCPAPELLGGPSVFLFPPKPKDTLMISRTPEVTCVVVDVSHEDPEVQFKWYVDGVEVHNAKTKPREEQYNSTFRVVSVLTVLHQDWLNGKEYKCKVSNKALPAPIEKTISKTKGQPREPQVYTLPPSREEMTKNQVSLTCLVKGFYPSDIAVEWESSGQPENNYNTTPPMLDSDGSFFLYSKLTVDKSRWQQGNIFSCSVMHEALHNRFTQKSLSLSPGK

With Gly^29 -TNFα (ligand), in [1], the selectivity factor S (IC50 p75-TNF-R against IC50 p55-TNF-R) was 80.

In general, IC50 refers to the concentration at which inhibition is half-maximal. In the case of Ser^29 -TNFα (ligand), the specific activity (U/mg), cytotoxicity assay on Hep-2 cells in [2] amounted to 9.3e+06 U/mg. Further, in [2], the specific activity on Hep-2 cells, relative value in percentage to TNF-α was 32%. Also, the increase in KD-value by a factor, against TNF-α in assay [3] is greater than 100 fold. In assay [4], this substance yielded an affinity, relative value in percentage to TNF-α of 0.49%. For the same substance, the Decrease in Affinity (with respect to TNFα) in assay [5] came out at 250. Further, the fold reduction of binding affinity against its affinity to p55-TNF-R in [6] was found to be 50 fold. In [6], this substance had a percent of its binding affinity to p55-TNF-R of 2%. Besides, the Mean dpm worked out at 632 dpm in assay [7]; 1870 dpm in [8]; 533 dpm in assay [9]; 949 dpm in assay [10]; 983 dpm in assay [11]; 1580 dpm in assay [12]. Moreover, the Mean dpm in assay [13] is 263 dpm; in [14], 238 dpm; in [15], 572 dpm; in assay [16] it was 635 dpm; in assay [17] it was 319 dpm; in assay [18] it was 489 dpm. Also, the Mean dpm in assay [19] is 603 dpm; in assay [20], 380 dpm; in assay [21], 1780 dpm; in assay [22] it was 1720 dpm; in assay [23], 1710 dpm; in assay [24], 1420 dpm. Also, the Mean dpm was 1320 dpm in assay [25], 413 dpm in assay [26], 641 dpm in assay [27] and 1200 dpm in [28]. Moreover, the IC50 in assay [29] was 2.5 µg/mL. Moreover, the selectivity factor S (IC50 p75-TNF-R against IC50 p55-TNF-R) in assay [30] was found to be 28.

With Ser^29 -Trp^32 -TNFα (ligand), in assay [1], the selectivity factor S (IC50 p75-TNF-R against IC50 p55-TNF-R) is 450.

Take Trp^32 -TNFα (ligand): the specific activity (U/mg), cytotoxicity assay on Hep-2 cells in [2] is 4.5e+07 U/mg. Also, in assay [2], the specific activity on Hep-2 cells, relative value in percentage to TNF-α was 155%. Further, in [3], the increase in KD-value by a factor, against TNF-α is greater than 100 fold. In assay [4], the affinity, relative value in percentage to TNF-α came to 0.71%. The Decrease in Affinity (with respect to TNFα) in [5] was found to be 500. Further, the fold reduction of binding affinity against its affinity to p55-TNF-R in [6] stood at 33 fold. The substance further came in with a percent of its binding affinity to p55-TNF-R in [6] of 3%. Moreover, the Mean dpm in assay [7] turned out to be 777 dpm; in [8], 1920 dpm; in assay [9] it was 628 dpm; in assay [10], 953 dpm; in [11], 1030 dpm; in [14] it was 294 dpm. Further, the Mean dpm in [15] was 585 dpm; in [17] it was 422 dpm; in assay [18] it was 546 dpm; in assay [19], 629 dpm; in assay [20] it was 479 dpm; in assay [21] it was 1700 dpm. Moreover, the Mean dpm is 1380 dpm in [31]; 1660 dpm in assay [22]; 1330 dpm in [32]; 1580 dpm in [23]; 508 dpm in assay [26]; 636 dpm in assay [27]. The Mean dpm is 1490 dpm in assay [33]; 1170 dpm in assay [28]; 357 dpm in assay [34]; 653 dpm in assay [35]; 1190 dpm in [36]; 814 dpm in assay [37]. Moreover, the Mean dpm was determined as 3280 dpm in assay [38]; 4760 dpm in [39]; 1470 dpm in [40]; 3030 dpm in [41]; 4040 dpm in assay [42]; 1980 dpm in assay [43]. The Mean dpm in assay [44] was determined as 3620 dpm; in [45], 2390 dpm. For the same substance, the half-inhibitory concentration (IC50) in assay [29] was 5 µg/mL. In [30], this substance came in with a selectivity factor S (IC50 p75-TNF-R against IC50 p55-TNF-R) of 294.

Regarding Tyr^29 -TNFα (ligand), the selectivity factor S (IC50 p75-TNF-R against IC50 p55-TNF-R) in [1] was 110.

Regarding Tyr^32 -TNFα (ligand), the selectivity factor S (IC50 p75-TNF-R against IC50 p55-TNF-R) in assay [1] is 90.
